Source: PMC3374753

Biological target: retromer cargo-selective complex (CSC), trimer of VPS35, VPS29 and VPS26 (UniProt Q96QK1)
Experiment: ITC

Kd	stoichiometry N	Kd of the second site (two-site model, one site fixed to 16.6 μM)	Substance
2.4 µM	0.42		FC fragment of FAM21 (938-1341 without 1029-1047) as used in ITC (domain or fragment)
11.5 µM	0.32		FN fragment of FAM21 (356-600) as used in ITC (domain or fragment)
6.8 µM	0.39		R19-20 for ITC (FAM21 1250-1317, Trp, His6) (domain or fragment)
2.5 to 16.6 µM	0.49	3 µM	R20-21 for ITC (FAM21 1278-1341, Trp, His6) (domain or fragment)
16.6 µM	0.82		R21 for ITC (FAM21 1309-1341, Trp, His6) (domain or fragment)

Biological target: retromer cargo-selective complex (CSC), trimer of VPS35, VPS29 and VPS26 (UniProt Q96QK1)
Experiment: ITC
Remark: another data set of the same source

Kd	Substance
3.2 µM	R20-21 for ITC (FAM21 1278-1341, Trp, His6) (domain or fragment)
